This is an account of results in CN115594758A (NANJING JINGZHUN BIOTECHNOLOGY CO LTD, dated 2023).

For the assay, the target named is SARS-CoV-2假病毒 (病毒包膜糖蛋白 on MLV pseudovirus) (SARS-CoV-2, UniProt P0DTC2 14-1273). Kind of assay: cell-based or functional assay.

B1: 纳米抗体SA4 (VHH)
VHH: QVQLQESGGGLVQPGGSLRLSCAASGSFFEFGTVGWFRQAPGKQRELVSRITGNDHRYYADSVKGRFTISRDNDETTVYLQMDSLKPEDTAIYHCNILEGQRWSNYWGQGTQVTVSH
Consider B1, for which the “假病毒中和实验 IC50 (GFP by flow cytometry, VeroE6-hACE2 cells)” value is 12.7 nM.
